Experimental data taken from patent US20030202938A1 (UNIVERSITY OF MEDICINE AND DENTISTRY OF NEW JERSEY, published 2003).

Target: T1, bovine serum albumin (bovine, UniProt P02769 25-607)
T1 construct: also called BSA
Assay: SELDI-TOF ProteinChip, protein covalently bound to PS-1 chip, SP added
Protocol: HGFIN-SP interaction was studied by pre-treating the PS1 chips with 50% acetonitrile for 3 min. After this, the chips were incubated for 45 min with the following: 2.5 μg HGFIN (experimental sample), anti-Id2, an unrelated IgG regarding its ability to complex with SP and was therefore treated as a negative control, rabbit anti-SP (positive control) or 20 ng fibronectin, fragment III-C (positive control). The arrays were blocked for 25 min with 1M ethanolamine and washed with PBS+0.5% Triton X (2×) and a final PBS wash step. After this the chips were washed with PBS+Triton-x, PBS, rinsed with 5 mM Hepes and then dried. CHCA was applied and the non-covalently bound SP was detected with the SELDI-Time of Flight Mass spectrometer as described for the profiling studies for HGFIN.
Fibronectin has been reported to bind SP. Therefore, this property of fibronectin was used as a positive control for SP interaction on the SELDI system. […] Similar results were shown with another positive control: rabbit anti-SP (covalently bound) and SP (FIG. 4C, lower chromatogram). No peak was detected in two negative controls, which consisted of bovine serum albumin or an unrelated antibody (anti-Id2) covalently bound to the surface of PS-1.

T1 sequence (P02769 25-607 limits assumed): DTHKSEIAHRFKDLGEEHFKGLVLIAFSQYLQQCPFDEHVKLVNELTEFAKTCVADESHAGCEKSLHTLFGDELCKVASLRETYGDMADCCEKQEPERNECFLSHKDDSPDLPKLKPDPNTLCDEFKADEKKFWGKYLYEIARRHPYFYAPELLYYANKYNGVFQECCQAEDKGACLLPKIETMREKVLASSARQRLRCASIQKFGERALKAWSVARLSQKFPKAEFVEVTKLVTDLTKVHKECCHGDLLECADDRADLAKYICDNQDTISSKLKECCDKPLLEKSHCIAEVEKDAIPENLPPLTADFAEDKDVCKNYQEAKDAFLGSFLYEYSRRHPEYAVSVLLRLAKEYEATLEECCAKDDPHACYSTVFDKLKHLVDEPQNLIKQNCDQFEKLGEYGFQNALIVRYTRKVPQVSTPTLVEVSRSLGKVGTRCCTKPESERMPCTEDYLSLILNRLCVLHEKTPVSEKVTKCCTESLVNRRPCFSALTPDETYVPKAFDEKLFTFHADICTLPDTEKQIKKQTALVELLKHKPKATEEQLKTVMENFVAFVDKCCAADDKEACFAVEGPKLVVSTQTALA

binding result: no binding
B1: Substance P (peptide, UniProt P20366 58-68, looked up)
peptide: RPKPQQFFGLM
notes: Substance P is an 11-residue peptide cut from it; 2 ug was added to the chips; also called SP
